From patent publication US20250034266A1 (ZAI LAB SHANGHAI, published 2025)
Residue numbers refer to the chain shown, from its start. Like-named read-outs stand apart in the source and are kept apart here. Values belong to the binder of their own block, whether it stands above or below them.

How the values were obtained:
human CCR8 [1] = biological target: T1, human CCR8 (human, UniProt P51685 1-355); experiment: FACS on CHO-K1-human CCR8 cells
T1 construct: whole, on cells; also called hCCR8
T1 sequence (P51685 whole entry): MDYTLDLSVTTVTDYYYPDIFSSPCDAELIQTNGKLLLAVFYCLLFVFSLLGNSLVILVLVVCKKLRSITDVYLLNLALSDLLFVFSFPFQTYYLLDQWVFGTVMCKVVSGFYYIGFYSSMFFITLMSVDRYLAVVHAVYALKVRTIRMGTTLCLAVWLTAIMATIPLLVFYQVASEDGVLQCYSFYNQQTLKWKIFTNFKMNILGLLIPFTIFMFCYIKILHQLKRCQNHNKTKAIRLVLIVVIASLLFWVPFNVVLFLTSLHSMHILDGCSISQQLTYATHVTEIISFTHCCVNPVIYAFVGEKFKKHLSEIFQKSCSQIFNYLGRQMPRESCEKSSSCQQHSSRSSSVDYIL

cynomolgus CCR8 [2] = biological target: T2, cynomolgus CCR8 (cynomolgus, UniProt G7NYJ2 1-355); experiment: FACS on HEK293-cynomolgus CCR8 cells
T2 construct: whole, on cells
T2 sequence (G7NYJ2 entry or part of it): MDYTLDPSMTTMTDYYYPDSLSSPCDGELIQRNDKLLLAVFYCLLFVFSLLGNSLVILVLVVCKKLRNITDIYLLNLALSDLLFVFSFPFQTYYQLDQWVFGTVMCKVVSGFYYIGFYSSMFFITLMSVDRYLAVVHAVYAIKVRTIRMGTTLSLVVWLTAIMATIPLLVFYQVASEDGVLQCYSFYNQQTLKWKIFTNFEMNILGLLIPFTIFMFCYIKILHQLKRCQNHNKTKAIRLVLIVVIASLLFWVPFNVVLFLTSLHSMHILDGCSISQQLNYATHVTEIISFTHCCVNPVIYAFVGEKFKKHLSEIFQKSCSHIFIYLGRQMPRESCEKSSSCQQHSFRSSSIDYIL

human CCR8 [3] = biological target: T1, human CCR8; experiment: FACS on HuT78 cells (endogenous human CCR8)
human CCR8 [4] = biological target: T1, human CCR8; experiment: cell-based or functional assay
human CCR8 [5] = biological target: T1, human CCR8; experiment: FACS, competition with CCL1 on CHO-K1-human CCR8 cells
human CCR8 [6] = biological target: T1, human CCR8; experiment: as above; remark: listed apart in the source
human CCR8 [7] = biological target: T1, human CCR8; experiment: FACS on CHO-K1-human CCR8 cells; remark: listed apart in the source
human CCR8 [8] = biological target: T1, human CCR8; experiment: cell-based or functional assay; remark: listed apart in the source
human CCR8 [9] = biological target: T1, human CCR8; experiment: FACS on HuT78 cells (endogenous human CCR8); remark: listed apart in the source
Procedure: HuT78 cells expressing endogenous human CCR8 were used for determining binding affinities of selected affinity matured anti-CCR8 antibodies. Briefly, a total of […] cells for each well were seeded in 96-well plates and washed with FACS buffer (DPBS containing […]) for once. […] Cells were incubated with 50 μL of diluted antibodies at 4° C. for 1 hour. After primary antibody incubation, cells were washed for 3 times by FACS buffer. Then, cells were stained by Alexa Fbu647 labeled anti-human IgG secondary antibody (Jackson ImmunoResearch, #109606170) at 1:600 dilution in FACS buffer for 0.5 hour at 4° C. After 3 times washed, flow cytometry (Sartourius, iQue3) was performed to measure the binding affinities of antibodies. […]

cynomolgus CCR8 [10] = biological target: T2, cynomolgus CCR8; experiment: FACS on HEK293-cynomolgus CCR8 cells; remark: listed apart in the source
human CCR8 [11] = biological target: T1, human CCR8; experiment: cell-based or functional assay; remark: listed apart in the source
human CCR8 [12] = biological target: T3, human CCR8 (human, UniProt P51685 1-355); experiment: cell-based or functional assay; remark: listed apart in the source
T3 sequence (P51685 whole entry): as the sequence (P51685 whole entry) above

human CCR8 [13] = biological target: T3, human CCR8; experiment: flow cytometry on TALL-1 cells (endogenous CCR8)
Procedure: Briefly, a total of 5×10⁴ cells for each well were seeded in 96-well plates and washed with FACS buffer (DPBS containing 1.5% FBS) for once. Antibodies were prepared with 3-fold serial dilution ranging from 100 nM to 0.00508 nM in FACS buffer. Cells were incubated with 50 μL of diluted antibodies at 4° C. for 40 minutes. After primary antibody incubation, cells were washed twice by FACS buffer. Then, cells were stained by Alexa Flu647-labeled anti-human IgG Fc secondary antibody (Jackson ImmunoResearch, #109606170) at 1:500 dilution in FACS buffer for 40 minutes at 4° C. After 2 times wash with FACS buffer, flow cytometry (BD FACS Celesta) was performed to measure the binding affinities of antibodies.

human CCR8 [14] = biological target: T3, human CCR8; experiment: cell-based or functional assay; remark: listed apart in the source
human CCR8 [15] = biological target: T3, human CCR8; experiment: cell-based or functional assay; remark: listed apart in the source
human CCR8 [16] = biological target: T3, human CCR8; experiment: cell-based or functional assay; remark: listed apart in the source

B1: Hu149-11 (antibody, human IgG1)
heavy: not shown
VL: DIVMTQSPLSLPVTPGEPASISCRSSKSLLHSNANTYLYWFLQKPGQSPQLLIYRMSNLASGVPDRFSGSGSGTDFTLKISRVEAEDVGVYYCMQHLEYPLTFGGGTKVELK
notes: also called Hu149-11G1
EC50 (human CCR8 [1]): 0.158 nM
Max MFI (human CCR8 [1]): 210000 MFI
EC50 (cynomolgus CCR8 [2]): 0.262 nM
Max MFI (cynomolgus CCR8 [2]): 4.48e+06 MFI
EC50 (human CCR8 [3]): 0.735 nM
Max MFI (human CCR8 [3]): 57900 MFI
IC50, inhibition of CCL1 induced β-Arrestin recruitment (human CCR8 [4]): 0.8 nM
Max Inhibition (%), CCL1 induced β-Arrestin recruitment (human CCR8 [4]): 85.2%
IC50 (human CCR8 [5]): 0.0988 nM
Max Inhibition (%) (human CCR8 [5]): 100%
IC50 (human CCR8 [6]): 0.283 nM
Max Inhibition (%) (human CCR8 [6]): 99.5%
EC50 (human CCR8 [7]): 0.0797 nM
Max MFI (human CCR8 [7]): 648000 MFI
IC50, blocking of cell migration induced by CCL1 (human CCR8 [8]): 0.849 nM
EC50 (human CCR8 [9]): 0.278 nM
Max MFI (human CCR8 [9]): 30200 MFI
EC50 (cynomolgus CCR8 [10]): 0.137 nM
Max MFI (cynomolgus CCR8 [10]): 4.6e+06 MFI

B2: Hu149-4-mIgG2a (antibody, V domains shown)
VH: EVQLVESGGGLVQPGGSLKLSCAASGFTFNTYAMNWVRQASGKGLEWVGRIRSKSNFYATYYAASVKGRFTISRDDSKNTAYLQMNSLKTEDTAVYYCTRGRDYGSSYAMDYWGQGTLVTVSS
VL: B1 VL
IC50, blocking of CCL1 induced cell migration (human CCR8 [11]): 2.95 nM

B4: Hu149-11G1 (antibody, human IgG1)
heavy: not shown
VL: B1 VL
notes: also called Hu149-11G1 (wild type variant)
EC50, ADCC reporter, 158F CD16a/NFAT-Jurkat, target TALL-1 cells (human CCR8 [12]): 0.12 nM
EC50, ADCC reporter, 158V CD16a/NFAT-Jurkat, target TALL-1 cells (human CCR8 [12]): 0.0658 nM
EC50 (human CCR8 [13]): 0.315 nM
EC50, ADCC with human PBMCs, target CHO-K1-human CCR8 cells (human CCR8 [14]): 0.0139 nM
Max specific lysis (%), ADCC with human PBMCs, target CHO-K1-human CCR8 cells (human CCR8 [14]): 52.5%
EC50, ADCC with human PBMCs (LDH release), target TALL-1 cells (human CCR8 [15]): 0.0121 nM
EC50, ADCC reporter, F variant CD16a/NFAT-Jurkat, target CHO-K1-human CCR8 cells (human CCR8 [16]): 0.0586 nM
EC50, ADCC reporter, F variant CD16a/NFAT-Jurkat, target HuT78 cells (human CCR8 [16]): 0.402 nM
EC50, ADCC reporter, V variant CD16a/NFAT-Jurkat, target CHO-K1-human CCR8 cells (human CCR8 [16]): 0.0391 nM
EC50, ADCC reporter, V variant CD16a/NFAT-Jurkat, target HuT78 cells (human CCR8 [16]): 0.586 nM
Max (RLU), ADCC reporter, F variant CD16a/NFAT-Jurkat, target CHO-K1-human CCR8 cells (human CCR8 [16]): 4.71e+06 RLU
Max (RLU), ADCC reporter, F variant CD16a/NFAT-Jurkat, target HuT78 cells (human CCR8 [16]): 4.07e+06 RLU
Max (RLU), ADCC reporter, V variant CD16a/NFAT-Jurkat, target CHO-K1-human CCR8 cells (human CCR8 [16]): 2.03e+06 RLU
Max (RLU), ADCC reporter, V variant CD16a/NFAT-Jurkat, target HuT78 cells (human CCR8 [16]): 3.89e+06 RLU

The next lines start with the values.

IC50, inhibition of CCL1 induced β-Arrestin recruitment (human CCR8 [4]): 0.61 nM
Max Inhibition (%), CCL1 induced β-Arrestin recruitment (human CCR8 [4]): 88.8%
IC50 (human CCR8 [5]): 0.0614 nM
Max Inhibition (%) (human CCR8 [5]): 101%
EC50 (human CCR8 [7]): 0.0722 nM
Max MFI (human CCR8 [7]): 694000 MFI
Max MFI (human CCR8 [9]): 351000 MFI
EC50 (cynomolgus CCR8 [10]): 0.0826 nM
Max MFI (cynomolgus CCR8 [10]): 4.15e+06 MFI
B3: Hu149-18 (antibody, human IgG1, V domains shown)
VH: B2 VH with Y61A
VL: B1 VL with E98R
notes: human IgG1

EC50 (human CCR8 [1]): 0.093 nM
Max MFI (human CCR8 [1]): 199000 MFI
EC50 (cynomolgus CCR8 [2]): 0.17 nM
Max MFI (cynomolgus CCR8 [2]): 3.61e+06 MFI
EC50 (human CCR8 [3]): 0.25 nM
Max MFI (human CCR8 [3]): 48100 MFI
IC50, inhibition of CCL1 induced β-Arrestin recruitment (human CCR8 [4]): 0.35 nM
Max Inhibition (%), CCL1 induced β-Arrestin recruitment (human CCR8 [4]): 85.8%
IC50 (human CCR8 [5]): 0.0982 nM
Max Inhibition (%) (human CCR8 [5]): 100%
IC50 (human CCR8 [6]): 0.184 nM
Max Inhibition (%) (human CCR8 [6]): 99.5%
EC50 (human CCR8 [7]): 0.0675 nM
Max MFI (human CCR8 [7]): 638000 MFI
IC50, blocking of cell migration induced by CCL1 (human CCR8 [8]): 0.953 nM
EC50 (human CCR8 [9]): 0.17 nM
Max MFI (human CCR8 [9]): 26900 MFI
EC50 (cynomolgus CCR8 [10]): 0.199 nM
Max MFI (cynomolgus CCR8 [10]): 4.04e+06 MFI
B5: Hu149-12 (antibody, human IgG1)
heavy: not shown
VL: B1 VL
notes: human IgG1; suffix G1 read as wild type as for Hu149-11G1; also called Hu149-12G1
